Measurements as given in patent US20220306765A1 (SUZHOU TRANSCENTA THERAPEUTICS, published 2022).
Like-named read-outs stand apart in the source and are kept apart here.

How the values were obtained:
human CLDN18.1 = target: T1, human CLDN18.1 (human, UniProt P56856 1-261); experiment: FACS, HEK293-CLDN18.1 cells
T1 construct: on HEK293-CLDN18.1 cells; also called Claudin-18 splice variant 1; NP_057453.1

human CLDN18.2 = target: T2, human CLDN18.2 (human); experiment: FACS, HEK293-CLDN18.2 cells
T2 construct: also called hCLDN18.2; Claudin-18 splice variant 2

[1] = target: T3, human CLDN18.2-mRFP1, wild-type (human); experiment: FACS, transfected HEK293, 10 µg/ml antibody
T3 construct: human CLDN18.2 (amino acid 1-261) fused to mRFP1 (amino acid 1-225), transiently expressed in HEK293 cells; also called wild-type human CLDN18.2-mRFP
Method: (§1) The transfected HEK293-CLDN18.2 or HEK293-CLDN18.1 cell were resuspended in PBS with 2% BSA at density of 10\hat{ }5/well, 100 μl/well. […] Next, cells were washed 3 times by FACS washing buffer and incubated with 100 μl/well goat anti-hIgG (H+L)-FITC (1:200 dilution) at 4° C. for another 30 min. Finally, cells were washed 3 times by FACS washing buffer and analyzed by Flow Cytometry. To analyze binding to CLDN18.2 transfected cells, the RFP positive cells were used for control gating.

human CLDN18.2-mRFP Q29M = human CLDN18.2-mRFP Q29M (human); experiment: FACS, transfected HEK293, 10 µg/ml antibody;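 further: antibody binding read by flow cytometry with a FITC-labelled anti-human IgG secondary, gated on RFP-positive cells, each mutant signal expressed against wild-type CLDN18.2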
Method: as §1

human CLDN18.2-mRFP N37D = human CLDN18.2-mRFP N37D (human); experiment: FACS, transfected HEK293, 10 µg/ml antibody;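 further: antibody binding read by flow cytometry with a FITC-labelled anti-human IgG secondary, gated on RFP-positive cells, each mutant signal expressed against wild-type CLDN18.2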
Sequence of human CLDN18.2-mRFP N37D (human) (chain, as listed by the source N37D N37D limits assumed): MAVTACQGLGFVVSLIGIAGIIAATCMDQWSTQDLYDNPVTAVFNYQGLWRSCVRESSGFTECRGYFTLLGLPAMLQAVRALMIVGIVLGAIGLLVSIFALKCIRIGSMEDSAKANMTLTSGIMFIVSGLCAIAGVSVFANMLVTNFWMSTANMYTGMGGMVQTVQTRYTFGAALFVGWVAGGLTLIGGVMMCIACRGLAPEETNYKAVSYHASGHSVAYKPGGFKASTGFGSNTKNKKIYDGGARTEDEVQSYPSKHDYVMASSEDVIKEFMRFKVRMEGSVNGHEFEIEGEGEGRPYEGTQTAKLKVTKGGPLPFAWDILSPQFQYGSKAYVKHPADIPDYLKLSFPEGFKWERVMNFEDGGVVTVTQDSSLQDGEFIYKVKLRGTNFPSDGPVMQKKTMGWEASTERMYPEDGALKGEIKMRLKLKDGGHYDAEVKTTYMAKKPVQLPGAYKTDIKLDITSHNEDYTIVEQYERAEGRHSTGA
Method: as §1

human CLDN18.2-mRFP A42S = human CLDN18.2-mRFP A42S (human); experiment: FACS, transfected HEK293, 10 µg/ml antibody;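 further: antibody binding read by flow cytometry with a FITC-labelled anti-human IgG secondary, gated on RFP-positive cells, each mutant signal expressed against wild-type CLDN18.2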
Sequence of human CLDN18.2-mRFP A42S (human) (chain, as listed by the source A42S A42S limits assumed): as the sequence (chain, as listed by the source N37D N37D limits assumed) above, with D37N, A42S counted along it
Method: as §1

human CLDN18.2-mRFP N45Q = human CLDN18.2-mRFP N45Q (human); experiment: FACS, transfected HEK293, 10 µg/ml antibody;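 further: antibody binding read by flow cytometry with a FITC-labelled anti-human IgG secondary, gated on RFP-positive cells, each mutant signal expressed against wild-type CLDN18.2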
Sequence of human CLDN18.2-mRFP N45Q (human) (chain, as listed by the source N45Q N45Q limits assumed): as the sequence (chain, as listed by the source N37D N37D limits assumed) above, with D37N, N45Q counted along it
Method: as §1

human CLDN18.2-mRFP Q47E = human CLDN18.2-mRFP Q47E (human); experiment: FACS, transfected HEK293, 10 µg/ml antibody
Method: as §1

human CLDN18.2-mRFP E56Q = human CLDN18.2-mRFP E56Q (human); experiment: FACS, transfected HEK293, 10 µg/ml antibody
Method: as §1

human CLDN18.2-mRFP G65P = human CLDN18.2-mRFP G65P (human); experiment: FACS, transfected HEK293, 10 µg/ml antibody
Method: as §1

human CLDN18.2-mRFP L69I = human CLDN18.2-mRFP L69I (human); experiment: FACS, transfected HEK293, 10 µg/ml antibody
Sequence of human CLDN18.2-mRFP L69I (human) (chain, as listed by the source L69I L69I limits assumed): as the sequence (chain, as listed by the source N37D N37D limits assumed) above, with D37N, L69I counted along it
Method: as §1

[2] = target: T3, human CLDN18.2-mRFP1, wild-type; experiment: FACS, transfected HEK293, 10 µg/ml antibody; remark: listed apart in the source
Method: as §1
(§2) Subsequently, these plasmids of mutants and wild-type CLDN18.2-mRFP were transfected into HEK293 cell.

human CLDN18.2-mRFP Q29A = human CLDN18.2-mRFP Q29A (human); experiment: FACS, transfected HEK293, 10 µg/ml antibody;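 further: antibody binding detected by flow cytometry with FITC-labelled anti-human IgG secondary, gated on RFP-positive cells, mutant signal relative to wild-type CLDN18.2-mRFP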
Method: as §1, §2

human CLDN18.2-mRFP S31A = human CLDN18.2-mRFP S31A (human); experiment: FACS, transfected HEK293, 10 µg/ml antibody;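 further: antibody binding detected by flow cytometry with FITC-labelled anti-human IgG secondary, gated on RFP-positive cells, mutant signal relative to wild-type CLDN18.2-mRFP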
Method: as §1, §2

human CLDN18.2-mRFP T32A = human CLDN18.2-mRFP T32A (human); experiment: FACS, transfected HEK293, 10 µg/ml antibody;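 further: antibody binding detected by flow cytometry with FITC-labelled anti-human IgG secondary, gated on RFP-positive cells, mutant signal relative to wild-type CLDN18.2-mRFP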
Sequence of human CLDN18.2-mRFP T32A (human) (chain, as listed by the source T32A T32A limits assumed): as the sequence (chain, as listed by the source N37D N37D limits assumed) above, with T32A, D37N counted along it
Method: as §1, §2

human CLDN18.2-mRFP Q33A = human CLDN18.2-mRFP Q33A (human); experiment: FACS, transfected HEK293, 10 µg/ml antibody;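 further: antibody binding detected by flow cytometry with FITC-labelled anti-human IgG secondary, gated on RFP-positive cells, mutant signal relative to wild-type CLDN18.2-mRFP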
Method: as §1, §2

human CLDN18.2-mRFP D34A = human CLDN18.2-mRFP D34A (human); experiment: FACS, transfected HEK293, 10 µg/ml antibody
Sequence of human CLDN18.2-mRFP D34A (human) (chain, as listed by the source D34A D34A limits assumed): as the sequence (chain, as listed by the source N37D N37D limits assumed) above, with D34A, D37N counted along it
Method: as §1, §2

human CLDN18.2-mRFP Y36A = human CLDN18.2-mRFP Y36A (human); experiment: FACS, transfected HEK293, 10 µg/ml antibody
Method: as §1, §2

human CLDN18.2-mRFP N38A = human CLDN18.2-mRFP N38A (human); experiment: FACS, transfected HEK293, 10 µg/ml antibody
Method: as §1, §2

human CLDN18.2-mRFP V40A = human CLDN18.2-mRFP V40A (human); experiment: FACS, transfected HEK293, 10 µg/ml antibody
Method: as §1, §2

human CLDN18.2-mRFP V43A = human CLDN18.2-mRFP V43A (human); experiment: FACS, transfected HEK293, 10 µg/ml antibody
Method: as §1, §2

human CLDN18.2-mRFP F44A = human CLDN18.2-mRFP F44A (human); experiment: FACS, transfected HEK293, 10 µg/ml antibody
Method: as §1, §2

human CLDN18.2-mRFP Q47A = human CLDN18.2-mRFP Q47A (human); experiment: FACS, transfected HEK293, 10 µg/ml antibody
Method: as §1, §2

human CLDN18.2-mRFP W50A = human CLDN18.2-mRFP W50A (human); experiment: FACS, transfected HEK293, 10 µg/ml antibody
Method: as §1, §2

human CLDN18.2-mRFP S52A = human CLDN18.2-mRFP S52A (human); experiment: FACS, transfected HEK293, 10 µg/ml antibody
Method: as §1, §2

human CLDN18.2-mRFP V54A = human CLDN18.2-mRFP V54A (human); experiment: FACS, transfected HEK293, 10 µg/ml antibody
Sequence of human CLDN18.2-mRFP V54A (human) (chain, as listed by the source V54A V54A limits assumed): as the sequence (chain, as listed by the source N37D N37D limits assumed) above, with D37N, V54A counted along it
Method: as §1, §2

human CLDN18.2-mRFP R55A = human CLDN18.2-mRFP R55A (human); experiment: FACS, transfected HEK293, 10 µg/ml antibody
Method: as §1, §2

human CLDN18.2-mRFP E56A = human CLDN18.2-mRFP E56A (human); experiment: FACS, transfected HEK293, 10 µg/ml antibody
Method: as §1, §2

human CLDN18.2-mRFP S57A = human CLDN18.2-mRFP S57A (human); experiment: FACS, transfected HEK293, 10 µg/ml antibody
Method: as §1, §2

human CLDN18.2-mRFP S58A = human CLDN18.2-mRFP S58A (human); experiment: FACS, transfected HEK293, 10 µg/ml antibody
Method: as §1, §2

human CLDN18.2-mRFP R64A = human CLDN18.2-mRFP R64A (human); experiment: FACS, transfected HEK293, 10 µg/ml antibody
Method: as §1, §2

human CLDN18.2-mRFP L69A = human CLDN18.2-mRFP L69A (human); experiment: FACS, transfected HEK293, 10 µg/ml antibody
Sequence of human CLDN18.2-mRFP L69A (human) (chain, as listed by the source L69A L69A limits assumed): as the sequence (chain, as listed by the source N37D N37D limits assumed) above, with D37N, L69A counted along it
Method: as §1, §2

human CLDN18.2-mRFP L72A = human CLDN18.2-mRFP L72A (human); experiment: FACS, transfected HEK293, 10 µg/ml antibody
Method: as §1, §2

human CLDN18.2-mRFP M75A = human CLDN18.2-mRFP M75A (human); experiment: FACS, transfected HEK293, 10 µg/ml antibody
Sequence of human CLDN18.2-mRFP M75A (human) (chain, as listed by the source M75A M75A limits assumed): as the sequence (chain, as listed by the source N37D N37D limits assumed) above, with D37N, M75A counted along it
Method: as §1, §2

human CLDN18.2-mRFP L76A = human CLDN18.2-mRFP L76A (human); experiment: FACS, transfected HEK293, 10 µg/ml antibody
Method: as §1, §2

human CLDN18.2-mRFP V79A = human CLDN18.2-mRFP V79A (human); experiment: FACS, transfected HEK293, 10 µg/ml antibody
Sequence of human CLDN18.2-mRFP V79A (human) (chain, as listed by the source V79A V79A limits assumed): as the sequence (chain, as listed by the source N37D N37D limits assumed) above, with D37N, V79A counted along it
Method: as §1, §2

binding result (human CLDN18.1): no binding
EC50 (human CLDN18.2): 1.35 µg/mL
binding percentage vs wild-type CLDN18.2 [1]: 100%
binding percentage vs wild-type CLDN18.2 (human CLDN18.2-mRFP Q29M): 90.4%
binding percentage vs wild-type CLDN18.2 (human CLDN18.2-mRFP N37D): 92.7%
binding percentage vs wild-type CLDN18.2 (human CLDN18.2-mRFP A42S): 90%
binding percentage vs wild-type CLDN18.2 (human CLDN18.2-mRFP N45Q): 65%
binding percentage vs wild-type CLDN18.2 (human CLDN18.2-mRFP Q47E): 87.5%
binding percentage vs wild-type CLDN18.2 (human CLDN18.2-mRFP E56Q): 52.7%
binding percentage vs wild-type CLDN18.2 (human CLDN18.2-mRFP G65P): 85.5%
binding percentage vs wild-type CLDN18.2 (human CLDN18.2-mRFP L69I): 106%
binding percentage vs wild-type CLDN18.2 [2]: 100%
binding percentage vs wild-type CLDN18.2 (human CLDN18.2-mRFP Q29A): 54.8%
binding percentage vs wild-type CLDN18.2 (human CLDN18.2-mRFP S31A): 76.8%
binding percentage vs wild-type CLDN18.2 (human CLDN18.2-mRFP T32A): 85.6%
binding percentage vs wild-type CLDN18.2 (human CLDN18.2-mRFP Q33A): 59.8%
binding percentage vs wild-type CLDN18.2 (human CLDN18.2-mRFP D34A): 96.3%
binding percentage vs wild-type CLDN18.2 (human CLDN18.2-mRFP Y36A): 78%
binding percentage vs wild-type CLDN18.2 (human CLDN18.2-mRFP N38A): 57.6%
binding percentage vs wild-type CLDN18.2 (human CLDN18.2-mRFP V40A): 128%
binding percentage vs wild-type CLDN18.2 (human CLDN18.2-mRFP V43A): 59.4%
binding percentage vs wild-type CLDN18.2 (human CLDN18.2-mRFP F44A): 70%
binding percentage vs wild-type CLDN18.2 (human CLDN18.2-mRFP Q47A): 57.5%
binding percentage vs wild-type CLDN18.2 (human CLDN18.2-mRFP W50A): 5.05%
binding percentage vs wild-type CLDN18.2 (human CLDN18.2-mRFP S52A): 99%
binding percentage vs wild-type CLDN18.2 (human CLDN18.2-mRFP V54A): 87.2%
binding percentage vs wild-type CLDN18.2 (human CLDN18.2-mRFP R55A): 49.7%
binding percentage vs wild-type CLDN18.2 (human CLDN18.2-mRFP E56A): 21.9%
binding percentage vs wild-type CLDN18.2 (human CLDN18.2-mRFP S57A): 77.2%
binding percentage vs wild-type CLDN18.2 (human CLDN18.2-mRFP S58A): 39.4%
binding percentage vs wild-type CLDN18.2 (human CLDN18.2-mRFP R64A): 51%
binding percentage vs wild-type CLDN18.2 (human CLDN18.2-mRFP L69A): 54.8%
binding percentage vs wild-type CLDN18.2 (human CLDN18.2-mRFP L72A): 53%
binding percentage vs wild-type CLDN18.2 (human CLDN18.2-mRFP M75A): 73.6%
binding percentage vs wild-type CLDN18.2 (human CLDN18.2-mRFP L76A): 52.1%
binding percentage vs wild-type CLDN18.2 (human CLDN18.2-mRFP V79A): 39.1%
B1: 59A9-C (antibody, human IgG1, V domains shown)
VH: QITQKESGPGILQPSQTLSLTCSLSGFSLSTYFIGVGWIRQPSGKGLEWLAHIWWNDNKYYNTALKSRLTISKDTSNNQVFLKIASVDTADTATYYCARMGSGAWFTYWGQGTLVTVSA
VL: DIVMTQSPSSLTVTAGEKVTMSCKSSQSLLNSGNQKNYLTWYQQKPGQPPKLLIYWASTRESGVPDRFTGSGSGTDFTLTISSVQAEDLAVYYCQNDYYYPLTFGSGTKLEIK
notes: also called chimeric 59A9
